Measurements reported in paper PMC9045261.

Target: OXAVL02 (OXA-1089)
Assay: SEC-MALS; active SEC fractions dialyzed against PBS (Na2HPO4 10 mM, KH2PO4 1.8 mM, NaCl 137 mM, KCl 2.7 mM, pH 7.4); 100 uL at 0.5 to 1 mg/mL on Superdex 200 Increase 10/300; UV, MALS and refractive index detectors; monomer-dimer equilibrium

Substance: OXAVL02 (OXA-1089) (enzyme)
- stoichiometry N: 2
